Test results as given in patent US20210206877A1 (Genentech, published 2021).
Residue numbers refer to the chain shown, from its start.

B1: 6297 (antibody, V domains shown)
VH: QLQLQESGPGLVKPSETLSLTCTVSGGPISSSSYYWGWIRQPPGKGLEWIGNIYYSGSTYYNPSLRGRVTISVDTSKNQFSLKLSSVTAADTAVYYCARLGHGYNYFDLWGRGTLVTVSS
VL: EIVLTQSPATLSLSPGERATLSCRASQSVSSYLAWFQQKPGQAPRLLIYDASNRATGIPARFSGSGSGTDFTLTISSLEPEDFAVYYCQQVYVWPPRTFGGGTKVEIK
B2: 6291 (antibody, V domains shown)
VH: B1 VH with P28S, N52M, Y60W, R66K, G67S, L100V, Y104V, N105S
VL: B1 VL with F36Y, D50G, N53K, V93T
B3: 6285 (antibody, V domains shown)
VH: B1 VH with P28S, I29T, N52S, Y55R, R66K, G67S, L100V, Y104I, N105S
VL: B1 VL with F36Y, N53S, V91S, Y92L, V93T
B4: 6290 (antibody, V domains shown)
VH: B1 VH with P28S, N52M, Y60W, R66K, G67S, L100V, H102L, Y104V, N105S
VL: B1 VL with F36Y, N53K, V93T
B5: 6289 (antibody, V domains shown)
VH: B1 VH with P28S, N52S, Y55R, G67S, A98V, L100V, Y104I, N105S
VL: B1 VL with F36Y, V91S, Y92L, V93T
B6: 6293 (antibody, V domains shown)
VH: B1 VH with P28S, N52M, Y60W, G67S, L100V, Y104V, N105S
VL: B1 VL with F36Y, N53K, V93T
B7: 6296 (antibody, V domains shown)
VH: B1 VH with P28S
VL: B1 VL
B8: 6298 (antibody, V domains shown)
VH: B1 VH with P28S, S31W, G37S, R66K, G67S
VL: B1 VL
B9: 6294 (antibody, V domains shown)
VH: B1 VH with P28S, Y34H, N52M, Y60W, R66K, G67S, L100V, Y104V, N105S
VL: B1 VL with F36Y, N53K, V93T
B10: 6288 (antibody, V domains shown)
VH: B1 VH with P28S, I29T, N52S, Y55R, G67S, L100V, Y104I, N105S
VL: B1 VL with F36Y, V91S, Y92L, V93T
B11: 6280 (antibody, V domains shown)
VH: B1 VH with P28S, I29T, N52S, Y55R, L65F, R66K, G67S, L100V, Y104I, N105S
VL: B1 VL with F36Y, V91S, Y92L, V93T
B12: 5260 (antibody, V domains shown)
VH: QVQLVQSGAEVKKPGSSVKVSCKASGGTFSSYAISWVRQAPGQGLEWMGSIIPIFGTANYAQKFQGRVTITADESTSTAYMELSSLRSEDTAVYYCARSGGTKYGMLDVWGQGTMVTVSS
VL: EIVMTQSPATLSVSPGERATLSCRASQSVGSNLAWYQQKPGQAPRLLIYGASTRATGIPARFSGSGSGTEFTLTISSLQSEDFAVYYCQQAVVWPPRTFGGGTKVEIK
B13: 5543 (antibody, V domains shown)
VH: B1 VH with P28S, N52S, R66K, G67S, L100V, Y104I, N105S
VL: B1 VL with F36Y, V91A
B14: 5643 (antibody, V domains shown)
VH: B1 VH with P28S, N52S, R66K, G67S, L100V, Y104I, N105S
VL: B1 VL with F36Y, V91S, Y92L, V93T
B15: 5902 (antibody, V domains shown)
VH: B1 VH with P28S, N52S, Y55R, Y60W, R66K, G67S, L100V, Y104I, N105S
VL: B1 VL with F36Y, N53K, V93T
B16: 5536 (antibody, V domains shown)
VH: B12 VH
VL: B12 VL with A91S, V92Y, V93L
B17: 5747 (antibody, V domains shown)
VH: B1 VH with P28S, R66K, G67S, N105S
VL: B1 VL with F36Y, V93L
B18: 5878 (antibody, V domains shown)
VH: EVQLLESGGGLVQPGGSLRLSCAASGFTFSSYAMSWVRQAPGKGLEWVSAISGSGISTPYADSVKGRFTISRDNSKNTLYLQMNSLRAEDTAVYYCAKGAGHGSYVKGWFDPWGQGTLVTVSS
VL: EIVLTQSPATLSLSPGERATLSCRASQSVSSYLAWYQQKPGQAPRLLIYDASNRATGIPARFSGSGSGTDFTLTISSLEPEDFAVYYCQQSVNFPFTFGGGTKVEIK
B19: 5583 (antibody, V domains shown)
VH: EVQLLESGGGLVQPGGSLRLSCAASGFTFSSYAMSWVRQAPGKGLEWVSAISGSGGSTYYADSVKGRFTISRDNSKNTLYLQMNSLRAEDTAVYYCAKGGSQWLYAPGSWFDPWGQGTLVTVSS
VL: B18 VL with Q89V, S91R, V92S, F96W
B20: 5876 (antibody, V domains shown)
VH: EVQLLESGGGLVQPGGSLRLSCAASGFTFSSRAMGWVRQAPGKGLEWVSATSGSGGSIYYADSVKGRFTISRDNSKNTLYLQMNSLRAEDTAVYYCAKGGSQWLYAPGSWFDPWGQGTLVTVSS
VL: B18 VL with Q89V, S91R, V92S, F96W
B21: 5532 (antibody, V domains shown)
VH: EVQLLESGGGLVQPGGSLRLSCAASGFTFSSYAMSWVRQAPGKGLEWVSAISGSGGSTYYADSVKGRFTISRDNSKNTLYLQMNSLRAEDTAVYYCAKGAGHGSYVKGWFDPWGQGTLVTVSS
VL: B18 VL with V92S
B22: 5880 (antibody, V domains shown)
VH: B18 VH with S30G, S35T
VL: B18 VL
B23: 5875 (antibody, V domains shown)
VH: B20 VH with S31T, R32Y, I58T
VL: B18 VL with Q89V, S91R, V92S, F96W
B24: 5874 (antibody, V domains shown)
VH: B20 VH with S30G, R32Y, G35S, I58T, N84D
VL: B18 VL with Q89V, S91R, V92S, F96W
B25: 5881 (antibody, V domains shown)
VH: B18 VH with S31K
VL: B18 VL
B26: 5592 (antibody, V domains shown)
VH: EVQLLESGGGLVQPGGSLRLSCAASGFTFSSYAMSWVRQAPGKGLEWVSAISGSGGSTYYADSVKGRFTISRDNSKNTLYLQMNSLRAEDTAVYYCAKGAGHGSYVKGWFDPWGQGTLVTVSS
VL: B18 VL
Wherever % inhibition, FRET short substrate assay (negative = activation) is given: test concentration or dose not given here.

The binders below were run against T1, BACE1 endogenous to primary cortical neurons from E16.5 CD1 mice (mouse, UniProt P56818 46-501) (assay: cell-based or functional assay).
T1 sequence (P56818 46-501): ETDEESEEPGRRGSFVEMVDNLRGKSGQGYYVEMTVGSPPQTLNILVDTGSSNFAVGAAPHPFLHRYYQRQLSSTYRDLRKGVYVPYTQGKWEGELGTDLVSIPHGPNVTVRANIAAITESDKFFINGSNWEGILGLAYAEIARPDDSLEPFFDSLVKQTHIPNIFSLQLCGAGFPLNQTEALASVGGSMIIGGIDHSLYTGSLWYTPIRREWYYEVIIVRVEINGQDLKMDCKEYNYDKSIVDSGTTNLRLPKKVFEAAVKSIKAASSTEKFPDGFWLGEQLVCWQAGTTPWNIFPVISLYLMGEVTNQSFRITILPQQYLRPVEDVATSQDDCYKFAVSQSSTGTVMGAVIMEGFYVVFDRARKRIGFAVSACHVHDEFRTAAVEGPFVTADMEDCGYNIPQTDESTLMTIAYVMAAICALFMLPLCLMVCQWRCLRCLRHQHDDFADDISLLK
For B1, the “max % inhibition, Abeta x-40 in mouse cortical neurons” value (from here on “max % inhibition”) was 63%.
In the case of B2, the “max % inhibition” value is reported as 68%.
With B3 the “max % inhibition” value was 57%.
B4 was tested, and the “max % inhibition” value was 63%.
For B5, the “max % inhibition” value was 74%.
For B6, the “max % inhibition” value was 75%.
With B7 the “max % inhibition” value was 62%.
For B8, the “max % inhibition” value was 67%.
With B9 the “max % inhibition” value was 59%.
For B10, the “max % inhibition” value was 67%.
For B11, the “max % inhibition” value was 65%.

Target: T1, BACE1 endogenous to primary cortical …
Experiment: cell-based or functional assay
Remark: another data set of the same source
For B12, the “max % inhibition” value was 74%.
In the case of B13, the “max % inhibition” value is reported as 65%.
With B14 the “max % inhibition” value was 60%.
With B15 the “max % inhibition” value was 67%.
With B16 the “max % inhibition” value was 84%.
With B17 the “max % inhibition” value was 74%.

The binders below were run against human BACE1 ECD (human, UniProt P56817) (assay: cell-based or functional assay).
Chain of human BACE1 ECD (P56817 22-457): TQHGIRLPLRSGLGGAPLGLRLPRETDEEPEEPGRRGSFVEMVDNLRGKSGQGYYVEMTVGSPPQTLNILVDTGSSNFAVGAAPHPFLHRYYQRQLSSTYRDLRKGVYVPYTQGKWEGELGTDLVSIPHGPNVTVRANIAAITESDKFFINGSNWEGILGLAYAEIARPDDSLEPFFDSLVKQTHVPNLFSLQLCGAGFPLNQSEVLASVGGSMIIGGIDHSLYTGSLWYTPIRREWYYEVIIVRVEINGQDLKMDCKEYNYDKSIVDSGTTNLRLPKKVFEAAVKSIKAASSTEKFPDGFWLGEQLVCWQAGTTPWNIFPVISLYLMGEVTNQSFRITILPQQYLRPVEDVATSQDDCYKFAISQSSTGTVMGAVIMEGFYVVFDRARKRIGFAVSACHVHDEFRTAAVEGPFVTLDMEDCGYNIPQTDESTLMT
With B18 the “% inhibition, FRET short substrate assay (negative = activation)” value (shortened to “% inhibition, FRET short substrate assay”) was 99%.
For B19, the “% inhibition, FRET short substrate assay” value was 44%.
In the case of B20, the “% inhibition, FRET short substrate assay” value is reported as 58%.
In the case of B21, the “% inhibition, FRET short substrate assay” value is reported as 56%.
B22 was tested, and the “% inhibition, FRET short substrate assay” value was 99%.
For B23, the “% inhibition, FRET short substrate assay” value was 51%.
For B24, the “% inhibition, FRET short substrate assay” value was 37%.
B25 was tested, and the “% inhibition, FRET short substrate assay” value was 97%.
In the case of B26, the “% inhibition, FRET short substrate assay” value is reported as 63%.
With B12 the “% inhibition, FRET short substrate assay” value was -54%.
In the case of B16, the “% inhibition, FRET short substrate assay” value is reported as 32%.

What follows are binders tested against murine BACE1 ECD (assay: cell-based or functional assay).
Chain of murine BACE1 ECD (single chain, as listed by the source limits assumed): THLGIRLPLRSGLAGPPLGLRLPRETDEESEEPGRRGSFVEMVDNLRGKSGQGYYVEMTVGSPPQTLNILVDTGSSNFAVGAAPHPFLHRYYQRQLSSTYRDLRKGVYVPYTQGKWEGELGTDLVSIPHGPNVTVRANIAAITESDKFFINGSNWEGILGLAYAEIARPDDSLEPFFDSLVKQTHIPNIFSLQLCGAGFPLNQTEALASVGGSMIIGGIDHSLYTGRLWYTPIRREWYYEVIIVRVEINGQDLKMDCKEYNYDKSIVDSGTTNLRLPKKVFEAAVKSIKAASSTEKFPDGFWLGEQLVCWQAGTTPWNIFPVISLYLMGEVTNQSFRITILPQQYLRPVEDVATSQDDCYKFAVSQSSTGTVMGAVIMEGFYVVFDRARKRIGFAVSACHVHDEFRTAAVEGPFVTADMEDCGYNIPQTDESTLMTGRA
In the case of B18, the “% inhibition, FRET short substrate assay” value is reported as 98%.
In the case of B19, the “% inhibition, FRET short substrate assay” value is reported as 34%.
B20 was tested, and the “% inhibition, FRET short substrate assay” value was 46%.
B21 was tested, and the “% inhibition, FRET short substrate assay” value was 50%.
For B22, the “% inhibition, FRET short substrate assay” value was 97%.
B23 was tested, and the “% inhibition, FRET short substrate assay” value was 39%.
With B24 the “% inhibition, FRET short substrate assay” value was 33%.
With B25 the “% inhibition, FRET short substrate assay” value was 98%.
B26 was tested, and the “% inhibition, FRET short substrate assay” value was 60%.
For B12, the “% inhibition, FRET short substrate assay” value was -35%.
For B16, the “% inhibition, FRET short substrate assay” value was 30%.

The binders below were run against BACE1 ECD (as used in the enzyme activity assay) (UniProt P56817 22-457, limits assumed) (assay: cell-based or functional assay).
Chain of BACE1 ECD (as used in the enzyme activity assay) (P56817 22-457 limits assumed): as the sequence (P56817 22-457) above
With B18 the “EC50, FRET short substrate assay” value was 0.0243 µM and the “EC50, HTRF long substrate assay” value was 0.164 µM.
In the case of B19, the “EC50, FRET short substrate assay” value is reported as 0.00972 µM and the “EC50, HTRF long substrate assay” value is reported as 0.172 µM.
B20 was tested, and the “EC50, FRET short substrate assay” value was 0.000703 µM and the “EC50, HTRF long substrate assay” value was 0.00167 µM.
For B21, the “EC50, FRET short substrate assay” value was 0.0523 µM and the “EC50, HTRF long substrate assay” value was 0.104 µM.
In the case of B22, the “EC50, FRET short substrate assay” value is reported as 0.00788 µM and the “EC50, HTRF long substrate assay” value is reported as 0.171 µM.
For B23, the “EC50, FRET short substrate assay” value was 0.00199 µM and the “EC50, HTRF long substrate assay” value was 0.0049 µM.
For B24, the “EC50, FRET short substrate assay” value was 0.000798 µM and the “EC50, HTRF long substrate assay” value was 0.00397 µM.
For B25, the “EC50, FRET short substrate assay” value was 0.00593 µM and the “EC50, HTRF long substrate assay” value was 0.0337 µM.
For B26, the “EC50, FRET short substrate assay” value was 0.0959 µM and the “EC50, HTRF long substrate assay” value was 0.189 µM.
In the case of B12, the “EC50, FRET short substrate assay” value is reported as 0.0368 µM and the “EC50, HTRF long substrate assay” value is reported as 0.72 µM.
With B13 the “EC50, FRET short substrate assay” value was 0.00911 µM and the “EC50, HTRF long substrate assay” value was 0.03 µM.
With B14 the “EC50, FRET short substrate assay” value was 0.00141 µM and the “EC50, HTRF long substrate assay” value was 0.0177 µM.
For B16, the “EC50, HTRF long substrate assay” value was 0.000578 µM.
